Results on one molecule are retold here after US20110097328A1 (MIT, published 2011).

Experiment [1] addresses T1, PARP5A-GFP fusion protein (UniProt O95271 1-1327).
T1 construct: Expressed in HeLa S3 cells from pEGFP-C1; also called tankyrase 1-GFP; not shown: EGFP (green fluorescent protein) encoded by vector pEGFP-C1, located N-terminal (5') to the PARP
T1 sequence (looked up): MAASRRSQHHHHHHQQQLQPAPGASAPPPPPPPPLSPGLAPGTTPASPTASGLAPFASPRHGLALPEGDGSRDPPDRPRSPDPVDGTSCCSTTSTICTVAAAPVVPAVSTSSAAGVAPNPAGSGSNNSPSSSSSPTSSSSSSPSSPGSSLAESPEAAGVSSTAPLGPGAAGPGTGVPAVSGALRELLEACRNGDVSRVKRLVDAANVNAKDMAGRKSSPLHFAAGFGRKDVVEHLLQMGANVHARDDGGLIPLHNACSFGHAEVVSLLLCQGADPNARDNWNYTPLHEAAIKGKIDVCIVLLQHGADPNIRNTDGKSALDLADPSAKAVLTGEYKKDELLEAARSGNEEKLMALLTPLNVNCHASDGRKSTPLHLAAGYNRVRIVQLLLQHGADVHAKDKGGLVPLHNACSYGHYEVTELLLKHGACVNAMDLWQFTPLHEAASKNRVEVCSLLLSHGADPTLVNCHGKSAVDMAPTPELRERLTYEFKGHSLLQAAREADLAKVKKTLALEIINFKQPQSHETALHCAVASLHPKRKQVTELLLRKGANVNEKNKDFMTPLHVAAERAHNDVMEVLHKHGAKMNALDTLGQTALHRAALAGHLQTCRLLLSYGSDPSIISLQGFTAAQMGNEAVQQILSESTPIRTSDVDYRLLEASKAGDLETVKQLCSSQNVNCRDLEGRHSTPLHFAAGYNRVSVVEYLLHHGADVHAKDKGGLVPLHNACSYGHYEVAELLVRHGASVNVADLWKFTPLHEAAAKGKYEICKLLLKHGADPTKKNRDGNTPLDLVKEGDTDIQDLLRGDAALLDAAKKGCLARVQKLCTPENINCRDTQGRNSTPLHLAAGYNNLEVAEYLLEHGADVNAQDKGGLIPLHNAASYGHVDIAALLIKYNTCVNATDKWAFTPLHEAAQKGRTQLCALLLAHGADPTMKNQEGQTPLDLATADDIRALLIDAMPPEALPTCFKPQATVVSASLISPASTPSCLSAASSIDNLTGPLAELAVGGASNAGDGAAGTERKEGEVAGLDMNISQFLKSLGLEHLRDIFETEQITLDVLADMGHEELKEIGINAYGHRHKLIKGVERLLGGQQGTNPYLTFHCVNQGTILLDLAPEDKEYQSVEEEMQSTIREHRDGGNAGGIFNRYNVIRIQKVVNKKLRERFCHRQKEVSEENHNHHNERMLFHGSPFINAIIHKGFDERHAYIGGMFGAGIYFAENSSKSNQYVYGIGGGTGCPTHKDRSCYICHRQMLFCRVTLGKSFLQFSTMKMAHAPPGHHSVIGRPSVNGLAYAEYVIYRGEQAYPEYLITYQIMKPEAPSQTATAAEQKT
Put plainly: co-immunoprecipitation: anti-GFP IP from lysate of transfected HeLa S3 cells (0 or 20 nM pateamine A, 30 min), immunoblot with anti-LSM1. As for the experimental part: (§1) FIG. 25C is a picture of several immunoblots of a 4-12% SDS-PAGE gel containing proteins immunoprecipitated with an anti-GFP antibody from lysate from HeLa S3 cells transfected with a pEGFP-C1 plasmid expressing GFP, PARP5A-GFP, PARP12-GFP, PARP13-GFP, PARP13.1-GFP, or PARP15-GFP following treatment with 0 or 20 nM pateamine A for 30 minutes. The immunoblots were developed using one of the following antibodies: anti-Agog, anti-DDX6, anti-LSM1, anti-PABP, anti-FMRP, anti-eIF1A, anti-eIF2a, anti-eIF3η, anti-eIF4A1, and anti-eIF4E.
(§2) Data from a separate set of experiments indicate that several stress granule-associated proteins bind to the PARP13-GFP, PARP12-GFP, and PARP5A-GFP fusion proteins. In these experiments, HeLa S3 cells were transfected with a pEGFP-C1 plasmid encoding a PARP13-GFP, PARP12-GFP, or PARP5A-GFP fusion protein and treated with 0 or 20 nM pateamine A for 30 minutes. Cell lysates from the cells were immunoprecipitated using an anti-GFP antibody and the immunoprecipitated proteins were electrophoresed using 4-12% SDS-PAGE. The resulting proteins were transferred to a membrane and immunoblotted using commercially-available antibodies specific for different stress granule-associated proteins: Ago2, DDX6, LSM1, PABP, FMRP, eIF1A, eIF2α, eIF3η, eIF4A1, and eIF4E.
Background: A western blot detects proteins with antibodies after separation by electrophoresis.

The target in experiment [2] is T2, PARP12-GFP fusion protein (UniProt Q9H0J9 1-701).
T2 construct: Expressed in HeLa S3 cells from pEGFP-C1; not shown: EGFP (green fluorescent protein) encoded by vector pEGFP-C1, located N-terminal (5') to the PARP
T2 sequence (looked up): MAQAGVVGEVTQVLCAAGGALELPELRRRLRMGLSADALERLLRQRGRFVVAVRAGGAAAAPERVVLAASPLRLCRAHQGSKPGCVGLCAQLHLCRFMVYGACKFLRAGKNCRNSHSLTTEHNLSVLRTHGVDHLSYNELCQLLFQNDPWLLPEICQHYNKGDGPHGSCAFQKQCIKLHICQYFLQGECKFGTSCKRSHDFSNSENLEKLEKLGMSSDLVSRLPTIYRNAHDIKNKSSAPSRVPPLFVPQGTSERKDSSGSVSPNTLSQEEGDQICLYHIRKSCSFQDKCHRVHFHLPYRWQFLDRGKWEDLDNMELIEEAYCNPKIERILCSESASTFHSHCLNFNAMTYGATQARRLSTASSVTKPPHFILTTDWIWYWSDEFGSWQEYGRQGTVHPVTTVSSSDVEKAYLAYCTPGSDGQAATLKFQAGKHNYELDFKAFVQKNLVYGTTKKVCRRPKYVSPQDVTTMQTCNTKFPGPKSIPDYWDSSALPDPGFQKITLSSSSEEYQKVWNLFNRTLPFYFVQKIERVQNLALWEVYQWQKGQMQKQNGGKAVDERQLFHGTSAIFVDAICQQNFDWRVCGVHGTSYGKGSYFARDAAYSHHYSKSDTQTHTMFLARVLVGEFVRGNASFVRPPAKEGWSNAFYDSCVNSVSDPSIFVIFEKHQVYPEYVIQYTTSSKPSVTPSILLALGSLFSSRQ
Described as above. As for the experimental part: as §1, §2

B1: LSM1 (other, human (HeLa S3 cells), UniProt O15116 1-133, looked up)
single chain: MNYMPGTASLIEDIDKKHLVLLRDGRTLIGFLRSIDQFANLVLHQTVERIHVGKKYGDIPRGIFVVRGENVVLLGEIDLEKESDTPLQQVSIEEILEEQRVEQQTKLEAEKLKVQALKDRGLSIPRADTLDEY
notes: endogenous protein in the cell lysate; member of the group m8
Turning to B1, the binding result in experiment [1] and in experiment [2] was “no binding” each time.
